Source: paper PMC6311151 (Biochimica et biophysica acta. Molecular and cell biology …, 2018)

Molecular target: the molecule itself
Assay: SEC

B1: Gloeobacter ligand-gated ion channel (natural protein)
chain: QDMVSPPPPIADEPLTVNTGIYLIECYSLDDKAETFKVNAFLSLSWKDRRLAFDPVRSGVRVKTYEPEAIWIPEIRFVNVENARDADVVDISVSPDGTVQYLERFSARVLSPLDFRRYPFDSQTLHIYLIVRSVDTRNIVLAVDLEKVGKNDDVFLTGWDIESFTAVVKPANFALEDRLESKLDYQLRISRQYFSYIPNIILPMLFILFISWTAFWSTSYEANVTLVVSTLIAHIAFNILVETNLPKTPYMTYTGAIIFMIYLFYFVAVIEVTVQHYLKVESQPARAASITRASRIAFPVVFLLANIILAFLFFGF
stoichiometry N: 5
